Numbering of substitutions follows the chain as printed.
B1: Ab No. 1 (antibody, V domains shown)
VH: QVQLVQSGAEVKKPGASVKVSCKASGYTFTSYAMHWVRQAPGQRLEWMGWINAGTGATKYSQKFQGRVTITRDTSASTAYMELSSLRSEDTAVYYCAKDIGSGFYELSLDYWGQGTLVTVSS
VL: DIQMTQSPSSVSASVGDRVTITCRASQGISSWLAWYQQKPGKAPKLLIYAASNLQSGVPSRFSGSGSGTDFTLTISSLQPEDFATYYCQQIISLPLTFGGGTKVEIK
notes: IgG format
B2: Ab No. 10 (antibody, V domains shown)
VH: QVQLVQSGAEVKKPGSSVKVSCKASGGTFSSYAISWVRQAPGQGLEWMGGIIPISGTANYAQKFQGRVTITADESTSTAYMELSSLRSEDTAVYYCARDKGGLGRGGRYWGQGTLVTVSS
VL: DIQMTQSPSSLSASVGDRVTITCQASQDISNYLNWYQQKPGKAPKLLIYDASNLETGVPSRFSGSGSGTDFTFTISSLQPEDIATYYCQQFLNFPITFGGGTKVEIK
notes: IgG format
B3: Ab No. 11 (antibody, V domains shown)
VH: QVQLVQSGAEVKKPGSSVKVSCKASGGTFSSYAISWVRQAPGQGLEWMGGIIPISGTANYAQKFQGRVTITADESTSTAYMELSSLRSEDTAVYYCARDRGLGFPHLVWGQGTLVTVSS
VL: B1 VL with N53S, I91G, I92N, L96I
notes: IgG format
B4: Ab No. 12 (antibody, V domains shown)
VH: QVQLVQSGAEVKKPGSSVKVSCKASGGTFSSYAISWVRQAPGQGLEWMGGIIPISGTANYAQKFQGRVTITADESTSTAYMELSSLRSEDTAVYYCARGGIALHRSSSGLLWGRGTLVTVSS
VL: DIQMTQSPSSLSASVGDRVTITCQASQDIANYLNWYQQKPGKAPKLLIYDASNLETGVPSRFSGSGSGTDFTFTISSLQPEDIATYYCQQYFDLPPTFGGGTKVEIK
notes: IgG format
B5: Ab No. 13 (antibody, V domains shown)
VH: QVQLVQSGAEVKKPGSSVKVSCKASGGTFSSYAISWVRQAPGQGLEWMGGIIPISGTANYAQKFQGRVTITADESTSTAYMELSSLRSEDTAVYYCARGGIALSAGPSNIWGQGTLVTVSS
VL: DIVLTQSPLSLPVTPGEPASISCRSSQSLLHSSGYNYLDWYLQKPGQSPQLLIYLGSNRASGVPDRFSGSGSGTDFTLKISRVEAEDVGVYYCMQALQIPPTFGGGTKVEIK
notes: IgG format
B6: Ab No. 14 (antibody, V domains shown)
VH: QVQLVQSGAEVKKPGSSVKVSCKASGGTFSSYAISWVRQAPGQGLEWMGGIIPISGTANYAQKFQGRVTITADESTSTAYMELSSLRSEDTAVYYCARGSLSLAAETPLWGRGTLVTVSS
VL: EIVLTQSPATLSLSPGERATLSCRASQSVSSYLAWYQQKPGQAPRLLIYDASKRATGIPARFSGSGSGTDFTLTISSLEPEDFAVYYCQQYLNFPITFGGGTKVEIK
notes: IgG format
B7: Ab No. 15 (antibody, V domains shown)
VH: B5 VH with G100S, I101L, A102S, S104V, A105S, G106Y, P107G, S108P, N109A, I110V
VL: EIVMTQSPATLSVSPGERATLSCRASQSVSSNLAWYQQKPGQAPRLLIYGASTRATGIPARFSGSGSGTEFTLTISSLQSEDFAVYYCQQYITHPPTFGGGTKVEIK
notes: IgG format
B8: Ab No. 16 (antibody, V domains shown)
VH: B2 VH with D99L, K100Y, G101H, G102I, L103G, G104T, R105T, G107Y, R108P
VL: DIQMTQSPSSLSASVGDRVTITCRASQSISSYLNWYQQKPGKAPKLLIYGASSLQSGVPSRFSGSGSGTDFTLTISSLQPEDFATYYCQQSYYDPTFGGGTKVEIK
notes: IgG format
B9: Ab No. 17 (antibody, V domains shown)
VH: QVQLVQSGAEVKKPGSSVKVSCKASGGTFSSYAISWVRQAPGQGLEWMGGVIPISGTANYAQKFQGRVTITADESTSTAYMELSSLRSEDTAVYYCARLYHLALAPAWGQGTLVTVSS
VL: B6 VL with L4M, K53N, Y91A, L92V, F94L
notes: IgG format
B10: Ab No. 18 (antibody, V domains shown)
VH: B2 VH with D99P, K100E, G101K, L103F, G104T, R105S, G107L, R108V, Y109D
VL: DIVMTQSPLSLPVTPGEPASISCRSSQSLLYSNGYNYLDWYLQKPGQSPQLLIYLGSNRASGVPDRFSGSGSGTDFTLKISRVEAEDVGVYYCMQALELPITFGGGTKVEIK
notes: IgG format
B11: Ab No. 19 (antibody, V domains shown)
VH: B2 VH with D99Q, K100Y, G102T, L103F, G104A, R105F, G106Y, G107S, R108D
VL: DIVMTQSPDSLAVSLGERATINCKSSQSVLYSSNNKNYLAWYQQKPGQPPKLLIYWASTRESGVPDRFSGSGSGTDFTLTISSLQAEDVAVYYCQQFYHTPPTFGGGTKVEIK
notes: IgG format
B12: Ab No. 2 (antibody, V domains shown)
VH: QVQLVQSGAEVKKPGASVKVSCKASGYTFTSYAMHWVRQAPGQRLEWMGWINAGTGATKYSQKFQGRVTITRDTSASTAYMELSSLRSEDTAVYYCARDLVHSYGLLPGWGQGTLVTVSS
VL: B6 VL with K53N, L92S, F94W, I96F
notes: IgG format
B13: Ab No. 21 (antibody, V domains shown)
VH: B3 VH with A97T, R100L, L102F, F104A, P105I, H106R, L107D, V108T
VL: B6 VL with Y36F, K53N, Y91S, F94L
notes: IgG format
B14: Ab No. 20 (antibody, V domains shown)
VH: B3 VH with A97T, R100L, L102F, F104A, P105I, H106R, L107D, V108T
VL: B6 VL with K53N, Y91S, L92N, F94L
notes: IgG format
B15: Ab No. 22 (antibody, V domains shown)
VH: B2 VH with A97V, D99A, K100R, G102I, L103V, R105P, G106D, G107E, R108G, Y109P
VL: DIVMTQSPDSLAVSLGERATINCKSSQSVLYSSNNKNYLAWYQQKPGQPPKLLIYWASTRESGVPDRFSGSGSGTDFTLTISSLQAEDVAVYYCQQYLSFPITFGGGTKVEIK
notes: IgG format
B16: Ab No. 23 (antibody, V domains shown)
VH: B2 VH with A97V, D99A, K100R, G102I, L103V, R105P, G106D, G107E, R108G, Y109P
VL: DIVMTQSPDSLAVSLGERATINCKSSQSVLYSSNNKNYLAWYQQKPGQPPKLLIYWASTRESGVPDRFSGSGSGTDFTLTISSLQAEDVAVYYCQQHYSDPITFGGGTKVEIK
notes: IgG format
B17: Ab No. 24 (antibody, V domains shown)
VH: QITLKESGPTLVKPTQTLTLTCTFSGFSLSTSGVGVGWIRQPPGKALEWLALIYWNDDKRYSPSLKSRLTITKDTSKNQVVLTMTNMDPVDTAVYYCARSFDQGIAVWGPFDYWGQGTLVTVSS
VL: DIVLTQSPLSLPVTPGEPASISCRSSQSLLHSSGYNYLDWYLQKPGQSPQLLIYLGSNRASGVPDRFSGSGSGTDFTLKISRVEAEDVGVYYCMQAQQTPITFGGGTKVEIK
notes: IgG format
B18: Ab No. 25 (antibody, V domains shown)
VH: EVQLVESGGGLVQPGRSLRLSCAASGFTFDDYAMHWVRQAPGKGLEWVSGISWSSGSIGYADSVKGRFTISRDNAKNSLYLQMNSLRAEDTAVYYCAKAWGRVGRANYYYYGLDVWGQGTTVTVSS
VL: EIVLTQSPATLSLSPGERATLSCRASQSVSSYLAWYQQKPGQAPRLLIYDASNRATGIPARFSGSGSGTDFTLTISSLEPEDFAVYYCQQYSNFPPITFGGGTKVEIK
notes: IgG format
B19: Ab No. 26 (antibody, V domains shown)
VH: B18 VH with K65E
VL: EIVLTQSPATLSLSPGERATLSCRASQSVSSYLAWYQQKPGQAPRLLIYDASNRATGIPARFSGSGSGTDFTLTISSLEPEDFAVYYCQQYANHLTFGGGTKVEIK
notes: IgG format
B20: Ab No. 27 (antibody, V domains shown)
VH: EVQLLESGGGLVQPGGSLRLSCAASGFTFSNYAMSWVRQAPGKGLEWVSAISGSGGSTYYADSVKGRFTISRDNSKNTLYLQMDSLRAEDTAVYYCASFGDIAVAGAGFVNWGQGTLVTVSS
VL: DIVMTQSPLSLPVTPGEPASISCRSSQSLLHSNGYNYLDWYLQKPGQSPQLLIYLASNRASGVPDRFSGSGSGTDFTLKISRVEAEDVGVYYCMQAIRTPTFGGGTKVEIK
notes: IgG format
B21: Ab No. 28 (antibody, V domains shown)
VH: EVQLLESGGGLVQPGGSLRLSCAASGFTFSSYAMSWVRQAPGKGLEWVSAISGSGGSTYYADSVKGRFTISRDNSKNTLYLQMNSLRAEDTAVYYCVRGYRLVGILTGSHFDYWGQGTLVTVSS
VL: DIQMTQSPSTLSASVGDRVTITCRASQSIGSWLAWYQQKPGKAPKLLIYKASSLESGVPSRFSGSGSGTEFTLTISSLQPDDFATYYCQQYNILPPTFGGGTKVEIK
notes: IgG format
B22: Ab No. 3 (antibody, V domains shown)
VH: QVQLVQSGAEVKKPGSSVKVSCKASGGTFSSYAISWVRQAPGQGLEWMGGIIPISGTANYAQKFQGRVTITADESTSTAYMELSSLRSEDTAVYYCAKALAPGIPQWGQGTLVTVSS
VL: B8 VL with G50A, S91A, Y93D
notes: IgG format
B23: Ab No. 4 (antibody, V domains shown)
VH: B22 VH
VL: DIQMTQSPSSLSASVGDRVTITCRASQSISRYLNWYQQKPGKAPKLLIYGASSLQSGVPSRFSGSGSGTDFTLTISSLQPEDFATYYCQQAFSSPITFGGGTKVEIK
notes: IgG format
B24: Ab No. 46 (antibody, V domains shown)
VH: QVQLVQSGAEVKKPGSSVKVSCKASGGTFSSYAISWVRQAPGQGLEWMGGIIPISGTTNYAQKFQGRVTITADESTSTAYMELSSLRSEDTAVYYCARHSSSWGTAITSDYWGQGTLVTVSS
VL: QSVLTQPPSVSGAPGQRVTISCTGSGSNIGAGYDVHWYQQLPGTAPKLLIYGNTNRPSGVPDRFSGSKSGTSASLAITGLQAEDEADYYCQSNDNSLRGILFGGGTKLTVL
notes: IgG format
B25: Ab No. 6 (antibody, V domains shown)
VH: B9 VH with V51I, R98K, L99G, Y100G, H101F, L102G, L104P, A105L, A107T
VL: B1 VL with N53S, I91G, L94H, L96F
notes: IgG format
B26: Ab No. 5 (antibody, V domains shown)
VH: B9 VH with V51I, R98K, L99G, Y100G, H101F, L102G, L104P, A105L, A107T
VL: B1 VL with M4L, G28D, N53S, I91G, I92N, S93A, L94H, L96F
notes: IgG format
B27: Ab No. 7 (antibody, V domains shown)
VH: B9 VH with V51I, R98K, L99G, Y100G, H101F, L102G, L104P, A105L, A107T
VL: B23 VL with R31S, G50S, A91G, F92S, S94V, I96F
notes: IgG format
B28: Ab No. 57 (antibody, V domains shown)
VH: QVQLQESGPGLVKPSETLSLTCTVSGGSISSYYWSWIRQPPGKGLEWIGSIYYSGSTNYNPSLKSRVTISVDTSKNQFSLKLSSVTAADTAVYYCARTEVGATRPREDFQHWGQGTLVTVSS
VL: QSVLTQPPSVSAAPGQKVTISCSGSSSNIGNNYVSWYQQLPGTAPKLLIYDNNKRPSGIPDRFSGSKSGTSATLGITGLQTGDEADYYCGTWDISLGWVFGGGTKLTVL
notes: IgG format

molecular target: T1, human CD28 (human, UniProt P10747 19-152, limits assumed); experiment: selection from yeast-presented synthetic human antibody libraries
T1 construct: also called Cluster of Differentiation 28; Tp44

Row | Binder | binding result
1 | B1 | binds
2 | B2 | binds
3 | B3 | binds
4 | B4 | binds
5 | B5 | binds
6 | B6 | binds
7 | B7 | binds
8 | B8 | binds
9 | B9 | binds
10 | B10 | binds
11 | B11 | binds
12 | B12 | binds
13 | B13 | binds
14 | B14 | binds
15 | B15 | binds
16 | B16 | binds
17 | B17 | binds
18 | B18 | binds
19 | B19 | binds
20 | B20 | binds
21 | B21 | binds
22 | B22 | binds
23 | B23 | binds
24 | B24 | binds
25 | B25 | binds
26 | B26 | binds
27 | B27 | binds
28 | B28 | binds

— EP4713368A1 (dated 2026)
